Laboratory results as given in PMC5360590 (EBioMedicine, 2017).

Assays:
[1] = biological target: HA of A/California/04/2009 (CA04; H1N1pdm09) on virus particles (Influenza A virus A/California/04/2009 …, UniProt C3W5S1, strain); experiment: BLI
[2] = biological target: HA of A/duck/Memphis/546/74 (H11), expressed in cells from pCAGGS (Influenza A virus …, UniProt Q0A426, strain); experiment: immunostaining of cells or tissue
[3] = biological target: HA of A/mallard/Astrakhan/263/82 (H14), expressed in cells from pCAGGS (Influenza A virus …, UniProt P26136, strain); experiment: immunostaining of cells or tissue
[4] = biological target: HA of A/chicken/Germany/N/49 (H10), expressed in cells from pCAGGS (Influenza A virus …, UniProt P12581, strain); experiment: immunostaining of cells or tissue
[5] = biological target: HA of A/Singapore/1/57 (H2), expressed in cells from pCAGGS (Influenza A virus A/Singapore/1/1957 …, UniProt Q67333, strain); experiment: immunostaining of cells or tissue
[6] = biological target: HA of A/turkey/Wisconsin/66 (H9), expressed in cells from pCAGGS (Influenza A virus …, UniProt P03457, strain); experiment: immunostaining of cells or tissue
[7] = biological target: HA of A/duck/Australia/341/83 (H15), expressed in cells from pCAGGS (Influenza A virus …, UniProt Q82565, strain); experiment: immunostaining of cells or tissue
[8] = biological target: HA of A/duck/Czechoslovakia/56 (H4), expressed in cells from pCAGGS (Influenza A virus …, UniProt P19696, strain); experiment: immunostaining of cells or tissue
[9] = biological target: HA of A/gull/Maryland/704/77 (H13), expressed in cells from pCAGGS (Influenza A virus …, UniProt P13103, strain); experiment: immunostaining of cells or tissue
[10] = biological target: HA of A/turkey/Ontario/6118/68 (H8), expressed in cells from pCAGGS (Influenza A virus …, UniProt P03456, strain); experiment: immunostaining of cells or tissue
[11] = biological target: Recombinant soluble HA of subtype H3 (A/Perth/16/2009, H3N2) (Influenza A virus A/Perth/16/2009 (H3N2), UniProt C6KNH7, strain); experiment: BLI
[12] = biological target: Recombinant soluble HA of subtype H1 (A/California/07/2009, H1N1pdm09) (Influenza A virus A/California/07/2009 …, UniProt C3W5X2, strain); experiment: BLI
[13] = biological target: Recombinant soluble HA of subtype H7 (A/Netherland/219/2003, H7N7) (Influenza A virus …, UniProt Q6VMK1); experiment: BLI

B1: S9-1-10/5-1, recombinant monoclonal human IgG (IgG1, kappa) (antibody, V domains shown)
VH: QLHLQESGPGLLKPSATLSLTCTVSGGSMNNYYWSWVRQAPGKGLEWIGYIFHSGSTNYSPPLKSRVTISIDTATNQFFLRLNSVTAADTAVYYCARMSRGVFSSSRFFGLDVWGRGTAVAVSS
VL: EIVLTQSPATLSVSPGERATLSCRASQSVASNLAWYQQKPGQAPRLLISAASTRATDIPARFSGSGSGTEFTLTISSLQSEDFAVYYCQQYNNWLSFTFGPGTKVDMK
B1: binds [1]; binds [2]; binds [3]. B1: binds [4]; binds [5]; binds [6]. B1: binds [7]; binds [8]; binds [9]. The binding result [10] was “binds”, the Kd [11] was 34 nM and the koff [11] was 0.002 s⁻¹. The kon [11] was 59000 M⁻¹ s⁻¹, the Kd [12] was 0.0085 nM and the koff [12] was 6.7e-06 s⁻¹. The kon [12] was 790000 M⁻¹ s⁻¹, the Kd [13] was 0.9 nM and the koff [13] was 0.00037 s⁻¹. For the same binder, the kon [13] was 410000 M⁻¹ s⁻¹.
